Experimental data from patent US11781164B2, “Demethylation of reticuline and derivatives thereof with fungal cytochrome P450” (priority 2017, dated 2023).

B1: CYPDN18: cytochrome P450 homolog A0A0C9MNJ6 from Mucor ambiguus, codon-optimized (protein, listed as Mucor ambiguus)
chain: MYSTASYNQTLERVVSVVRKNKTSYIGMAILCVVLQQIYSSFAVPPKHLRRFPKVSFMELMKSFYKKESVMNRNKRLVTPLTNAGHGFYISRIPLDWTIYVTDPIAAKTLLLKTDNFPKSHAIFGALGESSPVVKFMGNENVAVSNDILWRKQRKIMNPAFHRSQPVKVFGGVMPDLFALIDQDPEHVFITPKIKSFALDALGLSAFGFDFQSLKNDPEGWTSKYNTVVSSLFNPFVNLFAKCDFLIKYISAERRRVIKVTDEFNAMLSNLADKRRQEIMNGEKKNIAENEKDLLTLMIEADTREGVETTTTELRHNMAIFFLAGHDTTANTLALCLYQLAKHKHVQKKARQEVLDILGDDPWDVAPSLEDLKKLNYLNMVIKENLRRNGPVDNLMSRDTQQDINLNGTFIPKGSKVVINVASIHLNPKIWHNPESFIPERFEQGGEFDSHDGFTWLPFSNGSRQCLGLNFSLTEQRVALCMLLKRYEIDIPKDSIHYDEIVFDKAFTFAPQSLELSFKKRY
B2: CYPDN20: cytochrome P450 homolog A0A163A6R1 from Phycomyces blakesleeanus, codon-optimized (protein, listed as Phycomyces biakesleeanus)
chain: MCLFFCKKVYDFTAVPYELKKFPNIPFFYFVKSILSVESVENRTKRLVLPLLHKNNGFYVSRFPFYWTVFTTDPDAVQYLLMKGEIFPKDTRFTSAVSKDSLIIRLFGSSNVAFISGEPLKHQCRTMNPAFRRTAPVNIFGRLIPDMFRLIDKSDGDILIVNLLQRMTFDALGKALFGFDFKTMKEDNSAWMTAYSDAMSGVTAPVLNIIPSLEYILRYFYPNYTKAKNGVDKLNRLILELVNKKKQELEESMPQSCSNNNNGDTDGDAYDQEKDLLTLILEAEMKDNKSSGSDDLRANMATFIMAGHETTASSVSFCIYHMVINKDVRDKARREALDILGYDDFISPPTFDECKRVNYINMVVKEALRLCTPGGLLFERIATEDVFLSGVFIPKGTRISVDIEALHKNPAIWKNPSVFDPERFSKGGEHEQHRGITWAPFSDGNRKCLGINFSMTEQQVILLMLLKHYEWDLSENSIHNNGMVYDNVFSFAPKTLSIKFHKRH
B3: CYPDN21: cytochrome P450 homolog XM_018432503 from Phycomyces blakesleeanus, codon-optimized (protein, listed as Phycomyces biakesleeanus)
chain: MLAKKVNGYAGFTLDAIQTIYFNRAIKLVRPPKALSHIPHVPYFSYMSSLIKKENTISRNKRFANKLFEDPESNGLYLRPNVKGWEVVVTRPEDAKKLLFKSDIFPKADFTSGIDGTILSKFSRGPNLLFTTGAHWKAQRMVANPAFHRSAPVKLFGELTQKLFRVMDNRANKTVDITRLMEAWALDAIGLAGFDFDFNAIENPNSSWVRIYERVDKALVHPFYSFFPKADKYLLWVLPNRKQAHTDLDIFLKMIDNVIIAKKKALHENKSNKHLENSEKDLLTLMLESEAKGSTLSAKELRSNMCVFFAAGHETTANSLAYAIYFMAVNPDVQCKAREEAFKVLGDAQEDIMPTIEQTKSMDYINAVIKETLRSHSPALGTFARKATKDTELGGVLIPKDTMISMDIFNLHHNPNVWNNPDEFDPSRFLPGGEAEKQINNGFSWIPFGTGARQCIGMNFSLIEQRVMLSMMLRKFAWSLPEDSIHKDYLHTTNLVISSAKDLNINFEKLY
B4: CYPDN22: cytochrome P450 homolog XM_023609077 from Rhizopus microsporus, codon-optimized (protein, listed as Rhizopus microsporus)
chain: MAISFLYREGPAERLKRLKLPAMRKGNGFYLSRVPFCWTVYVANPIAAKQLLLKAENFPKSHFLMVGKDSPFVQFLGPDNVVNSNGENWKKQRKVMNPAFHRSMPVKTIAGVVLTLFAVIDKYKGKVPVTSTMQEFTLDVLGLAIFNFDFGSLKGDAKKWRAEYKLVMLFDPVTNVFTGFDFLLRYIYPKRIKGANAVNNLNKLFDQLVKQKRLEVQSGVHANKPQNEKDLLTLMLEAEQRGEAMTTDMEMRHNVAVFFLAGHESTAHVLSFTLYFLAKNKYVQQKLREEVSRVMGRKSVDVAPTLEELRQMEYLYAVIKESLRLCSIFDVLILRDAVEDMYLDDTFIPKGTRITIDVSAIQRDPKVWNNPDDFIPERFMEGGEAEGHEGMTWLPFGGGARQCIGMNFSLTEQKVALAMLVQRYDIDVPKDSIHYEDIAYERPFYLAPQSLELTFTKLH
B5: CYPDN24: cytochrome P450 homolog A0A077WFB8 from Lichtheimia ramosa, codon-optimized (protein, listed as Lichtheimia ramosa)
chain: MDNQTWSSVPGASFWKGKLVSGHYVREVFLNNDFDFLKGTGKRFDTLLLTDTTTQDVDIEVFRTVVMKHLTKEMKAYTPRVVQHLTAGGDEKLGDAKEPQELVHLFPLLQHMVAKASASIFVGTELASDDDVVETCKNIAIDIGSELGPGSYIMDAFPSLARLRMWYIGKFGKAINKHRQHLLRALGPVIDKRLAAAEKGGDWDRPQDILQDIIETINLTLDNPKRHILPVKWLLALFFASIHTTSENSTIVLYRIMQNPEIIDVLLEEQNQVLEKHYGSNIDYSDTTKLFTGEVIKELVKLDSLCREAMRARNSYLELPHTYVGKSRITLSCGAIIEPGHDVLINMWGNHRDAKIQRDTIGDHHDFKPFRFVGLDRQSTKIGDDFLMFGQGRHACPGRWFAIQEIKTIVSVLIRYYKLTPNGPITFPTHPRMPMPMGQVIIQRRQ
B6: CYPDN27: cytochrome P450 homolog A0A077WLY1 from Lichtheimia ramosa, codon-optimized (protein, listed as Licthheimia ramosa)
chain: MPSLIPKNASDAIEQYISRLKTMDRRHMGIIAGSVAVVSLYTFYRHLTRSRDDIPLVPYTWPLIGSTPSFNRDPVAFVEKWSQEYGPVFRAHLQGRIQTIIAAEYVRDIFMNSDFDFLFAVNKRFDPHLLADIDDNTFTTEMLRKVVMKLTTQLKSYTPRAVEFLDVGRNEFLSHFPAGPVHLPHLYPLIQHMVGKASAAIFAGTKLASNPEVVESFKNITLEVGAEIAVDSVFLERYWGLNRFRMWLMGKFSKSMKRHHRVLKDALRPEIKDRIEASSDPSRERPDDMLQIIIESYYTERRGESVDDLTEDLVKWLISLIFAAIHTTSENSTVVLYRILSKPDVVEELLEEQREVLVRHGISPDEKDPSKMFTGAVIKDLVKLDSACREGMRMRNDYLTLGHTYLGKKPITLSCGAVIKPGEDVIINTWYNHRNNKIQKIQGDDYSNYNPFRFVGSDRQAARIGDDFLIFGEGKHACPGRWFALQEMKTIISFLIRDYKMAPEGPITFPKNPKMTLPMGQVILESRH
B7: CYPDN28: cytochrome P450 homolog A0A1X2HYB6 from Absidia repens, codon-optimized (protein, listed as Absidia repens)
chain: MLTQYIHQFFNNFDQKKTMDQLQSVASSKDGVIGIATALILISGVAAYKSSTVERGCPQVPCGTFSFGSTSEYRENPVAFVKKWEEKLGPVFGAQLFGQYATIVSGPQVREIFSNENFSFMAGIQRDFDTYLLANGGSIHDLPPHVVSGGIKKNLSPKLPFYTSRVIEHLKIGLYEQCGVVPDEGKEFDHVYPFVQHMVAKASASVFVGPELAKDLNLVDSFKNMVLEVGSDMGPKPYLEHFPHLMRLRMWYIGKTSTNVKRHRDQLFAALVPQIDSRLKAMKEKDSNWDRPNDFLQDILETDDCPPHMDIYSYCVDWMTQIIFAALHTTSENGTIVLYRLLDNPKVLEELYEEQNAVLEEAGYDDTVGPEVFTREILNKFVKMDSVIRESCRLRNDYIGLPHTNVGKKTIVLSGGAMIRPGENAFVNFYSNHRDEKLQKSGMNANNFEPYRFVDQGKNSTKIGDDFMFFGMFKHACPGRWFAIQEIKTILAMLIRSYKMSAIDSVVFPTSDYTRIPTGRFKIVPRK
B8: CYPDN29: cytochrome P450 homolog A0A068SBU5 from Lichtheimia corymbifera, codon-optimized (protein, listed as Lichtheimia corymbifera)
chain: MYTLVSFLKDQNIIAVLKNAIHAQQQGTTASSITILSLAVAITTFAVHRIRLYSVKEHGVPLVPYVLPFIGSSPEYRKDPKAFLEKWTAKFGPVFRAHIFGRVYTIISGHYVREVFLNEDFSFEVGMGKTFDGWLITDTKKSELFSTPLVRSMVMKHLAVDVKNYTPRAVEHLTIAAREMLGDIGESKELPHLYPLIQHMVSTAIASILVGLKICKDKDLLETFKNVAVDIGSELNPDSYLYEAFPTISRLRQWYLGKYGKAINKHQEHMLRVLGPEIDERLAAMERGDGGWERPEDILQGILETAKLTSDHPQRYMVPIKWFLILVFASIHTTSQNTTVAMYRLLQHPEVIDELLEEQNQVFEKHHGSNYDDHDITKLLTGEVIKDLVKLDSVCREAMRISSFYAELPHTYIGKSPLTMSNGTIINPGDDVLINGYTNHHDPDIQIDGGGDYAEFKPFRFVEKGRQSTRIGDDYLIFGQGKHACPGRWFAMQEMKTTISFLIRQYIITAKGDIMFLKGHRQKIPMGQVIFQKR
B9: CYPDN30: cytochrome P450 homolog A0A1X2H4N2 from Syncephalastrum racemosum, codon-optimized (protein, listed as Syncephalastrum racemosum)
chain: MNALLQRQDKMRDFLNTREGVYGITAAVAVVLISAYSLRRTVYTSRRKDEIATVPYKLPLKGSTEEYRADPRAFVEKYAKMYGPVYRAYLFGEMMTIVSDSYVREIFLNDNFNFFQAVKDRFDMVKLCNCANDEGHGIADIVKRCLNPRLDMYTERVNEQLEEASKEILTEVDTKGSQELMHMYILVQHMVARASATVFVGPELAKNSELIDSFKNMVIQVGSQLRPNPWLEPFPRLNSLRMWYIGKTSPVVRKHRLQLRSAVKPSIDDRLARQKSQGNAFQRPDDLLQDIIERHPEAKTKSDIYDYVVDTLTALIFAALHTTSENSTVVLYRLLQHPELMEELVAEQDAVLLEHGLPKDSSARVMTRQMIKKFEKLDSVCRESFRLRNDYLGLPHTYEGKKDIVLSNGAIIKPGEKAIINLWGNHHSGNTPQSTSQDYFGFDPYRFVKQDKQATKISEDFLFFGLGKHACPGRFFAVQEAKVLISVLLRNYKLSPVDPPYFATDDTMKIPAGRIRIERR

What follows are molecules tested on thebaine (assay: Demethylation of thebaine by new cytochrome P450 fungal and plant homologs co-expressed with CPRs in S. cerevisiae). Details: 0.5 mM thebaine, SC or DELFT media pH 7, 72 h, 30° C.; co-expressed with Cel_CPR_co, Tp_CPR_5866, Tp_CPR_DN10898 or POR1.
In the case of B1, the Northebaine production is reported as “+”.
B2 was tested, and the Northebaine production was “+”.
With B3 the Northebaine production was “+”.
B4 was tested, and the Northebaine production was “+”.
For B5, the Northebaine production was “+”.
In the case of B6, the Northebaine production is reported as “+”.
B7 was tested, and the Northebaine production was “+”.
With B8 the Northebaine production was “+”.
In the case of B9, the Northebaine production is reported as “+”.
